Experimental data: patent publication US20100015664A1

Legend:
[1] = biological target: T1, Fluorescence-labeled synthetic peptide GPAG FAG (not fully specified)
T1 chain: GPAGFAG

[2] = biological target: T2, Nma-Thr-Gln-Ser-Leu-Val-Thr-Pro-Lys-(DNP)r-NH2 (not fully specified)
T2 chain: TQSLVTPK

[3] = biological target: T3, Fluorescence-labeled synthetic peptide PAG FAGP (not fully specified)
T3 chain: PAGFAGP

[4] = biological target: T4, Nma-Gly-Pro-Gln-Gly-Phe-Gln-Gly-Pro-Lys-(DNP)r-NH2 (not fully specified)
T4 chain: GPQGFQGPK

[5] = biological target: T5, Fluorescence-labeled synthetic peptide GPAG FA (not fully specified)
T5 chain: GPAGFA

[6] = biological target: T6, Fluorescence-labeled synthetic peptide GPAG F (not fully specified)
T6 chain: GPAGF

[7] = biological target: T7, Fluorescence-labeled synthetic peptide G FAGP (not fully specified)
T7 chain: GFAGP

[8] = biological target: T8, Fluorescence-labeled synthetic peptide AG FAGP (not fully specified)
T8 chain: AGFAGP

[9] = biological target: T9, Fluorescence-labeled synthetic peptide of Pro-Gln-Gly-Ile-Ala-Gly-Gln (not fully specified)
T9 chain: PQGIAGQ

[10] = biological target: T10, Nma-Gly-Pro-Ala-Gly-Phe-Ala-Gly-Pro-Lys-(DNP)r-NH2 (not fully specified)
T10 chain: GPAGFAGPK

B1: Protease of the present invention, purified from the culture of Aureobacterium sp. MIM-CG-9535-I (FERM P-15326) (protein)
chain: LIVNTVNSIDDKWSDAQASALTYCVSTAFGARHADVVSAMESGAALWEAASSKIDFIYDSSADANCTTRNNAVLFSVEPVQTTQYIARAFFPSTAPRLQNVLIDDSIWTPGSSWTPTNVLGHELGHVLGFRHEHTRPEAGTCFEDDNWRPLTPYDSSSIMHYPQCNGSSADLSMTSVDTDGVVALYGN
Question: B1 was tested. Which “Present or Absent of Specific degradation activity” value (“Present or Absent” for short) [1] did it give?
Answer: The value was “Absent”.

Question: And the “Protease cutting activity (degradation of synthetic substrate)” value (“Protease cutting activity” below) [2]?
Answer: The value was “(◯) Degrades”.

Question: And the “Present or Absent” value [3]?
Answer: Its value is “Present”.

Question: And the “Protease cutting activity” value [4]?
Answer: Its value is “(◯) Degrades”.

Question: And the “Present or Absent” value [5]?
Answer: Its value is “Absent”.

Question: What about the “Present or Absent” value [6] of the same protein?
Answer: The value was “Absent”.

Question: What about the “Present or Absent” value [7] of the same protein?
Answer: The value was “Absent”.

Question: What about the “Present or Absent” value [8] of the same protein?
Answer: Its value is “Absent”.

Question: And the “Protease cutting activity” value [9]?
Answer: The value was “(X) Does not degrade”.

Question: And the “Present or Absent” value [10]?
Answer: The value was “Present”.

Question: What about the “Protease cutting activity” value [10] of the same protein?
Answer: Its value is “(◯) Degrades”.
